Experiments:
FaPOD27 = biological target: T1, FaPOD27 (Fragaria x ananassa, UniProt J7IER7); experiment: LC-UV-ESI-MSn product identification; assay type: biochemical; details: H2O2, sodium tartrate pH 3.5, room temperature; crude E. coli protein
T1 construct: GST fusion, E. coli, crude protein
T1 sequence (J7IER7 1-329): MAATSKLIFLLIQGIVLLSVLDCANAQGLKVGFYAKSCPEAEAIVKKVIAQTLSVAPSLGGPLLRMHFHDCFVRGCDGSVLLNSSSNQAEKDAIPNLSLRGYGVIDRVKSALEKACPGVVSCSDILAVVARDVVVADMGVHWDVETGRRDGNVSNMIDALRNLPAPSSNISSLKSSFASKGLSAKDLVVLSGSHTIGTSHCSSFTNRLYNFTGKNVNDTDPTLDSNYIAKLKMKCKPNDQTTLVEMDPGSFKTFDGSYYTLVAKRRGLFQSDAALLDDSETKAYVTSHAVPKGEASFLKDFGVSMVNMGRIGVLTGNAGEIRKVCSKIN

FaCAD = biological target: T2, FaCAD (Fragaria x ananassa, UniProt J7IAL0); experiment: LC-UV-ESI-MSn product identification; assay type: biochemical; details: NADPH 200 μM, coniferaldehyde 100 μM, sodium phosphate pH 6.5, 30 °C; crude yeast protein
T2 construct: full-length ORF 1077 bp, 359 aa, 39 kDa; pYES2 in S. cerevisiae INVSc1, crude protein
T2 sequence (J7IAL0 1-359): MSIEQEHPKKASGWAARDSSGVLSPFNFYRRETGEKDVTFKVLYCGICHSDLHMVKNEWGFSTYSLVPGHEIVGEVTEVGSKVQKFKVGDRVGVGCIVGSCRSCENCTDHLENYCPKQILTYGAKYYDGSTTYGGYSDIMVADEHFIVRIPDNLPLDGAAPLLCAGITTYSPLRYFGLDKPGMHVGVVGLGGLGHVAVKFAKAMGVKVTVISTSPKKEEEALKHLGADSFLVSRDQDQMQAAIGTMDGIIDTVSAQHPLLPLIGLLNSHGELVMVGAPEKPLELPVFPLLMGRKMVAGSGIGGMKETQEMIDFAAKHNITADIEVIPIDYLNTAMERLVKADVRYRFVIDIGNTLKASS

[1] = substrate: COc1cc(/C=C/C(=O)SCCNC(=O)CCNC(=O)[C@H](O)C(C)(C)COP(=O)(O)OP(=O)(O)OC[C@H]2O[C@@H](n3cnc4c(N)ncnc43)[C@H](O)[C@@H]2OP(=O)(O)O)ccc1O; experiment: spectrophotometric CCR assay; assay type: biochemical, Fragaria x ananassa; details: NADPH, sodium phosphate, pH optimum 6, 25 °C, apparent Km
From the text: (§1) spectrophotometric CCR assay on GST-FaCCR

[2] = substrate: CC(C)(COP(=O)(O)OP(=O)(O)OC[C@H]1O[C@@H](n2cnc3c(N)ncnc32)[C@H](O)[C@@H]1OP(=O)(O)O)[C@@H](O)C(=O)NCCC(=O)NCCSC(=O)/C=C/c1ccc(O)c(O)c1; experiment: spectrophotometric CCR assay; assay type: biochemical, Fragaria x ananassa; details: NADPH, sodium phosphate, pH optimum 6, 25 °C, apparent Km
From the text: as §1

[3] = substrate: CC(C)(COP(=O)(O)OP(=O)(O)OC[C@H]1O[C@@H](n2cnc3c(N)ncnc32)[C@H](O)[C@@H]1OP(=O)(O)O)[C@@H](O)C(=O)NCCC(=O)NCCSC(=O)/C=C/c1ccc(O)cc1; experiment: spectrophotometric CCR assay; assay type: biochemical, Fragaria x ananassa; details: NADPH, sodium phosphate, pH optimum 6, 25 °C, apparent Km
From the text: as §1

Molecule: COc1cc(/C=C/CO)ccc1O [coniferyl alcohol]
- LC-UV-ESI-MSn product identification (FaPOD27): ferulic acid and coniferyl alcohol were almost completely oxidized in the presence of H2O2

Molecule: COc1cc(/C=C/C(=O)O)ccc1O [ferulic acid]
- LC-UV-ESI-MSn product identification (FaPOD27): ferulic acid and coniferyl alcohol were almost completely oxidized in the presence of H2O2

Molecule: COc1cc(/C=C/C=O)ccc1O [coniferaldehyde]
- LC-UV-ESI-MSn product identification (FaCAD): FaCAD was expressed in yeast cells and showed that coniferyl alcohol was generated

B1: GST-FaCCR (Fragaria x ananassa) (protein)
chain: MPVDNCSSLSGHGQTVCVTGAGGFFASWLVKLLLERGYNVRGTVRNPEDPKNAHLRELEGAKERLSLRKADLLDFESLKEAINGCDGVFHTASPVTDDPEQMVEPAVNGTKNVIVAAAEAKVKRVVFTSSIGAVYMDPARGPDVVVDESCWSDLEFCKNTKNWYCYGKAVAEQAAWEEAKERGVDLVVVNPVLVLGPLLQPTINASIIHILKYLTGSAKTYANSVQAYVHVKDVALAHILVYETPSASGRYLCAESVLHRGDVVEILAKFFPEYPIPSKLKDDGKPRAIPYKFSNQKLQDLGLEFTSVKQSLYDTVKSLQEKGHLKVPTKQEEDSFKIQ
- Km [1]: 16.11 ± 1.39 µM
- kcat/Km [1]: 145 M⁻¹ s⁻¹
- Km [2]: 25.48 ± 0.82 µM
- kcat/Km [2]: 1.15 M⁻¹ s⁻¹
- Km [3]: 24.75 ± 1.23 µM
- kcat/Km [3]: 1.07 M⁻¹ s⁻¹
